{"source": "patent US20120149881A1", "biological_target": "human IgE with the M1′ sequence (long form of membrane IgE) expressed on transduced BJAB or Daudi cells (human) (UniProt P01854)", "sequence (P01854 116-546 I515L limits assumed)": "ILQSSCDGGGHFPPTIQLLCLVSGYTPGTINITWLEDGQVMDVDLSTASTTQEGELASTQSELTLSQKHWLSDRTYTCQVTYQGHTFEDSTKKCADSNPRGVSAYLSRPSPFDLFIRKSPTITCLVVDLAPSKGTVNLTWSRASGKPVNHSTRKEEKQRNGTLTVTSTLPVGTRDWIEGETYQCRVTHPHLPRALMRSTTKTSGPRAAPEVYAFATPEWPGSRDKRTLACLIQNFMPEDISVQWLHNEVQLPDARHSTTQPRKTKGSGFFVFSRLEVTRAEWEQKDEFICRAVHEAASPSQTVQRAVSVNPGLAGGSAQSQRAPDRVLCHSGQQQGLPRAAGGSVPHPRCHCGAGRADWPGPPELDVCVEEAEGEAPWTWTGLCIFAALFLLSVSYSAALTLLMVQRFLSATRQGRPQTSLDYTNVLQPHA", "experiment": "number printed in the titration panel; FIG. 3M calls these numbers 'Scatchard Results' (BJAB-Long cells)"}
{"substance": "anti-human IgE antibody MAE11", "values": [{"measurement": "Kd", "result": 0.04, "unit": "nM"}]}
